What was measured:
Type in all cases: cell-based
[1] = tested on: P. aeruginosa 13-18499; experiment: agar disc-diffusion assay; conditions: strain 13-18499; 0.3, 3 and 30 μg of protein spotted on discs on CAA agar lawn, overnight
Outline: (§1)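 Overnight cultures in CAA medium were adjusted to OD595=1.0, diluted 100× and swabbed onto CAA agar (1.5%). Chimeric pyocins (0.3-30 μg) were spotted on 6 mm paper discs; plates were incubated overnight at 37° C and inhibition zones observed.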

[2] = tested on: P. aeruginosa ATCC 19660; experiment: agar disc-diffusion assay; conditions: strain ATCC 19660; 0.3, 3 and 30 μg of protein spotted on discs on CAA agar lawn, overnight
Outline: as §1

[3] = tested on: P. aeruginosa BL77; experiment: agar disc-diffusion assay; conditions: strain BL77; 0.3, 3 and 30 μg of protein spotted on discs on CAA agar lawn, overnight
Outline: as §1

[4] = tested on: P. aeruginosa Bu002; experiment: agar disc-diffusion assay; conditions: strain Bu002; 0.3, 3 and 30 μg of protein spotted on discs on CAA agar lawn, overnight
Outline: as §1

[5] = tested on: P. aeruginosa HP1; experiment: agar disc-diffusion assay; conditions: strain HP1; 0.3, 3 and 30 μg of protein spotted on discs on CAA agar lawn, overnight
Outline: as §1

[6] = tested on: P. aeruginosa HP40; experiment: agar disc-diffusion assay; conditions: strain HP40; 0.3, 3 and 30 μg of protein spotted on discs on CAA agar lawn, overnight
Outline: as §1

[7] = tested on: P. aeruginosa HP7; experiment: agar disc-diffusion assay; conditions: strain HP7; 0.3, 3 and 30 μg of protein spotted on discs on CAA agar lawn, overnight
Outline: as §1

[8] = tested on: P. aeruginosa NCTC 13437; experiment: agar disc-diffusion assay; conditions: strain NCTC 13437; 0.3, 3 and 30 μg of protein spotted on discs on CAA agar lawn, overnight
Outline: as §1

[9] = tested on: P. aeruginosa PAO1; experiment: agar disc-diffusion assay; conditions: strain PAO1; 0.3, 3 and 30 μg of protein spotted on discs on CAA agar lawn, overnight
Outline: as §1

[10] = tested on: P. aeruginosa ATCC 19660; experiment: MIC by agar dilution method; conditions: against ATCC 19660; CAA agar with 0.1 mg/ml BSA
Description: (§2) Aliquots of melted CAA (1.5% agar) medium (final volume—25 ml) pre-wormed to 51° C. were supplemented with 0.1 mg/ml BSA and with appropriate amounts of pyocin stock solutions of different concentrations (concentrations lowered by a factor of 2). Aliquots were poured into Petri plates. P. aeruginosa cultures were grown from single colony in CAA medium at 37° C., 200 rpm until OD595=0.2 and diluted to 10^7 CFU/ml in CAA medium. 1 μL of bacteria suspension were applied in three replicates on each test plate. Plates were left to incubate in 37° C. overnight. The determined MIC is a concentration of pyocin, where no confluent bacterial growth is observed.

[11] = tested on: P. aeruginosa PAO1; experiment: MIC by agar dilution method; conditions: against PAO1; CAA agar with 0.1 mg/ml BSA
Description: as §2

[12] = tested on: P. aeruginosa ATCC 19660; experiment: ex vivo porcine corneas as model for bacterial keratitis; conditions: 5 μg applied 16-20 h after colonization, further 16-20 h incubation
Description: (§3) Preparation of porcine corneas. Porcine eyes were acquired from the nearest slaughterhouse. Enucleated eyes were stored at −70° C. Before the start of experiment, eyes were transferred to 4° C. for 1 hour, then to room temperature for 1-2 hours until the eyeballs were completely defrosted. Then eyeballs were individually placed in sterile plastic containers and submerged for 5 min in 2.5% Povidone-iodine (Betadine 100 mg/ml; EGIS Pharmaceuticals PLC), then twice washed with sterile PBS. The corneas were excised with sterile surgical blade No. #12. The excised corneas were stored in Minimum Essential Medium (MEM) supplemented with Non-Essential Amino Acids, L-Glutamine (2 mM), penicillin (200 U/ml)+spectinomycin (25 μg/ml) until further use at 4° C. up to two weeks.
(§4) Cornea infection and pyocin treatment. P. aeruginosa was grown overnight from frozen stock. Next morning, the culture was diluted 100 fold by fresh LB medium, and grown until OD595=˜0.6 (˜6 hours). Bacteria were collected by centrifugation and re-suspended in PBS. The dissected corneas were placed on agarose-gelatin (0.5% each) solid support in a 6-well culture plate containing 800 μL MEM with antibiotics (100 U/ml penicillin, 25 μg/ml spectinomycin), then three horizontal and 3 vertical scratches were made using a sterile 25 gauge needle. 3×10^4 CFU of P. aeruginosa ATCC 19660 strain or 0.4×10^4 CFU of PAO1 strain were applied to cornea and incubated for 16-20 hours in 37° C. CO2 incubator ([…]). 5 corneas were used for each experimental point. After incubation with P. aeruginosa, the corneas were visually inspected for opacity. The corneas which were clear and without signs of infection were considered as non-infected and discarded from further study. 5 μg of S5-PmnH (in 5 μl of PBS) or 5 μl of PBS were applied to infected corneas and incubated for additional 16-20 hours in 37° C. CO2 incubator.
(§5) Homogenization and CFU counting. Prior the homogenization the corneas were washed 3 times for 10 min in 50 ml sterile PBS with occasional agitation. Each cornea was chopped in 4 equal parts, trying to get rid of sclera. […]

[13] = tested on: P. aeruginosa PAO1; experiment: as above; conditions: 5 μg applied 16-20 h after colonization, further 16-20 h incubation
Description: as §3, §4, §5

B1: S5-PmnH (protein)
chain: MSNDNEVPGSMVIVAQGPDDQYAYEVPPIDSAAVAGNMFGDLIQREIYLQKNIYYPVRSIFEQGTKEKKEINKKVSDQVDGLLKQITQGKREATRQERVDVMSAVLHKMESDLEGYKKTFTKGPFIDYEKQSSLSIYEAWVKIWEKNSWEERKKYPFQQLVRDELERAVAYYKQDSLSEAVKVLRQELNKQKALKEKEDLSQLERDYRTRKANLEMKVQSELDQAGSALPPLVSPTPEQWLERATRLVTQAIADKKQLQTTNNTLIKNSPTPLEKQKAIYNGELLVDEIASLQARLVKLNAETTRRRTEKELTPDEKAAYTDAVSFVSTANEQMLQKYGANLSKVAQDMQAEIAGKKVRSYAEAMATFEKISANPAMKLNALDTQAVVDALNALDKASFADNITRLGKAFGVVGKVVQAEAIREKTVSGFQTGDWKPLMLELEAMAVGTGAGILLATSMAFFFPVFASAAAGVVVVALMMAATAAYFDAAKVDEINNLILN
modifications: Chimeric S5-PmnH
Activity in agar disc-diffusion assay [1]: ** (activity detected with 3 μg of protein) | Activity in agar disc-diffusion assay [2]: ** (activity detected with 3 μg of protein) | Activity in agar disc-diffusion assay [3]: ** (activity detected with 3 μg of protein) | Activity in agar disc-diffusion assay [4]: *** (activity detected with 0.3 μg of protein) | Activity in agar disc-diffusion assay [5]: *** (activity detected with 0.3 μg of protein) | Activity in agar disc-diffusion assay [6]: *** (activity detected with 0.3 μg of protein) | Activity in agar disc-diffusion assay [7]: *** (activity detected with 0.3 μg of protein) | Activity in agar disc-diffusion assay [8]: * (activity detected only with 30 μg of protein) | Activity in agar disc-diffusion assay [9]: *** (activity detected with 0.3 μg of protein) | MIC determined by agar dilution method [10]: 32 µg/mL | MIC determined by agar dilution method [11]: 4 µg/mL | reduction of CFU number [12]: 5.3 log10 | burden in treated corneas (average) [13]: 10 CFU per cornea | reduction of burden vs untreated corneas [13]: 6.6 log10

From US20250188133A1, “CHIMERIC BACTERIOCINS AND METHOD FOR THE CONTROL OF PSEUDOMONAS” (priority 2022, published 2025)
